Test: soluble on expression in E. coli; label from the status in PepcDB or PDB records

| Sequence | soluble on expression in E. coli |
| --- | --- |
| SLVVNRSWMRCWSITALRADHSVKICLIDETGAGDGALSVLAARWGLEHDEDNLMALVLTPEHLELRKRDEPKLGGIFVDFVGGAMAHRRKFGGGRGEAVAKAVGIKGDYLPDVVDATAGLGRDAFVLASVGCRVRMLERNPVVAALLDDGLARGYADAEIGGWLQERLQLIHASSLTALTDITPRPQVVYLDPMFPHKQKSALVKKEMRVFQSLVGPDLDADGLLEPARLLATKRVVVKRPDYAPPLANVATPNAVVTKGHRFDIYAGTPV | soluble |
| SMANHLVKPDNRNCKRPRELESPVPDSPQLSSLGKSDSSFSEISGLFYKDEALEKDLNDVSKEINLMLSTYAKLLSERAAVDASYIDEIDELFKEANAIENFLIQKREFLRQRFTVIANTLHR | soluble |
| SMDEVVRIHSSSGTTGKPTVVGYTKHDMEVWGEVMARTFTLAGVTAKDVVHNAYGYGLFTGGLGFHDGAQRVGATIIPASGGFTNRQIMLLRDFKATALTCTPSFAMHLAEVAKSEGFDPRKDFHLKAGIFGAEPSSEGLQRAVADTWGIAYHEIYGLSELIGPGVSCSCEQ | not soluble |
| SMGAEPGRPARLDQLLDMPAAGLAVQLRHAWNPEDRSLNVFVKDDDRLTFHRHPVAQSTDGIRGKVGHARGLHAWQINWPARQRGTHAVVGVATARAPLHSVGYTALVGSDAESWGWDLGRSRLYHDGKNQPGVAYPAFLGPDEAFALPDSLLVVLDMDEGTLSFIVDGQYLGVAFRGLKGKKLYPVVSAVWGHCEVTMRYINGLDPE | soluble |
| SMGKEKSKEPRDPDQLYSTLKSILQQVKSHQSAWPFMEPVKRTEAPGYYEVIRFPMDLKTMSERLKNRYYVSKKLFMADLQRVFTNCKEYNPPESEYYKCANILEKFFFSKIKEAGLID | soluble |
| SMPKDVGILALEVYFPAQYVDQTDLEKYNNVEAGKYTVGLGQTRMGFCSVQEDINSLCLTVVQRLMERIQLPWDSVGRLEVGTETIIDKSKAVKTVLMELFQDSGNTDIEGIDTTNACYGGTASLFNAANWMESSSWDGRYAMVVCGDIAVYPSGNARPTGGAGAVAMLIGPKAPLALERGLRGTHMENVYDFYKPNLASEYPIVDGKLSIQCYLRALDRCYTSYRKKIQNQWKQAGSDRPFTLDDLQYMIFHTPFCKMVQKSLARLMFNDFLSASSDTQTSLYKGLEAFGGLKLEDTYTNKDLDKALLKASQDMFDKKTKASLYLSTHNGNMYTSSLYGCLASLLSHHSAQELAGSRIGAFSYGSGLAASFFSFRVSQDAAPGSPLDKLVSSTSDLPKRLASRKCVSPEEFTEIMNQREQFYHKVNFSPPGDTNSLFPGTWYLERVDEQHRRKYARRPV | soluble |
| SMPSQQRVKRWGFSFDEILKDQVGRDQFLRFLESEFSSENLRFWLAVQDLKKQPLQDVAKRVEEIWQEFLAPGAPSAINLDSHSYEITSQNVKDGGRYTFEDAQEHIYKLMKSDSYARFLRSNAYQDLLLAKKKGKSLAGKRLTGLMQ | soluble |
| SMQAARLAKALRELGQTGWYWGSMTVNEAKEKLKEAPEGTFLIRDSSHSDYLLTISVKTSAGPTNLRIEYQDGKFRLDSIICVKSKLKQFDSVVHLIDYYVQMCKDKRTGPEAPRNGTVHLYLTKPLYTSAPSLQHLCRLTINKCTGAIWGLPLPTRLKDYLEEYKFQV | soluble |
| SMSTKGTILVTGGAGYIGSHTAVELLAHGYDVVIADNLVNSKREAIARIEKITGKTPAFHETDVSDERALARIFDAHPITAAIHFAALKAVGESVAKPIEYYRNNLDSLLSLLRVMRERAVKRIVFSSSATVYGVPERSPIDETFPLSATNPYGQTKLMAEQILRDVEAADPSWRVATLRYFNPVGAHESGLIGEDPAGIPNNLMPYVAQVAVGKLEKLRVFGSDYPTPDGTGVRDYIHVVDLARGHIAALDALERRDASLTVNLGTGRGYSVLEVVRAFEKASGRAVPYELVARRPGDVAECYANPAAAAETIGWKAERDLERMCADHWRWQENNPRGFV | soluble |
| SMSVKKPKRDDSKDLALCSMILTEMETHEDAWPFLLPVNLKLVPGYKKVIKKPMDFSTIREKLSSGQYPNLETFALDVRLVFDNCETFNEDDSDIGRAGHNMRKYFEKKWTDTFKVS | soluble |
| SMTTNVGDSTLADLLDHSCTSGSGSGLPFLVQRTVARQITLLECVGKGRYGEVWRGSWQGENVAVKIFSSRDEKSWFRETELYNTVMLRHENILGFIASDMTSRHSSTQLWLITHYHEMGSLYDYLQLTTLDTVSCLRIVLSIASGLAHLHIEIFGTQGKPAIAHRDLKSKNILVKKNGQCCIADLGLAVMHSQSTNQLDVGNNPRVGTKRYMAPEVLDETIQVDCFDSYKRVDIWAFGLVLWEVARRMVSNGIVEDYKPPFYDVVPNDPSFEDMRKVVCVDQQRPNIPNRWFSDPTLTSLAKLMKECWYQNPSARLTALRIKKTLTKID | soluble |
| SMVSPEEAVKWGESFDKLLSHRDGLEAFTRFLKTEFSEENIEFWIACEDFKKSKGPQQIHLKAKAIYEKFIQTDAPKEVNLDFHTKEVITNSITQPTLHSFDAAQSRVYQLMEQDSYTRFLKSDIYLDLMEGRPQRPTNLRRRSRSFTCNE | soluble |
| SNADDMIILKGVNIFPIQIETILLQFKELGSDYLITLETAESNDEMTVEVELSQLFTDDYGRLQALTREITRQLKDEILVTPRVKLVPKGALPKSEGKAVRVKDLRKTF | soluble |
| SNAIFMDYYENRKVMAEAQNIYEKSPMEEQSQDGEVRKQFKALQQINQEIVGWITMDDTQINYPIVQAKDNDYYLFRNYKGEDMRAGSIFMDYRNDVKSQNRNTILYGHRMKDGSMFGSLKKMLDEEFFMSHRKLYYDTLFEGYDLEVFSVYTTTTDFYYIETDFSSDTEYTSFLEKIQEKSLYKTDTTVTAGDQIVTLSTCDYALDPEAGRLVVHAKLVKRQ | soluble |
| SNAMENQKMQEPLVYRRILLTVDEDDNTSSERAFRYATTLAHDYDVPLGICSVLESEDINIFDSLTPSKIQAKRKHVEDVVAEYVQLAEQRGVNQVEPLVYEGGDVDDVILEQVIPEFKPDLLVTGADTEFPHSKIAGAIGPRLARKAPISVIVVR | soluble |
| SNAMPQQKNFVTMPAQHQNKQPGIESLMNPLPQFEDPNYKGSEKLKGKNVLITGGDSGIGRAVSIAFAKEGANIAIAYLDEEGDANETKQYVEKEGVKCVLLPGDLSDEQHCKDIVQETVRQLGSLNILVNNVAQQYPQQGLEYITAEQLEKTFRINIFSYFHVTKAALSHLKQGDVIINTASIVAYEGNETLIDYSATKGAIVAFTRSLSQSLVQKGIRVNGVAPGPIWTPLIPSSFDEKKVSQFGSNVPMQRPGQPYELAPAYVYLASSDSSYVTGQMIHVNGGVIVNG | soluble |
| SNAMSKRVLMVVTNHTTITDDHKTGLWLEEFAVPYLVFQEKGYDVKVASIQGGEVPLDPRSINEKDPSWAEAEAALKHTARLSKDDAHGFDAIFLPGGHGTMFDFPDNETLQYVLQQFAEDGRIIAAVCHGPSGLVNATYKDGTPIVKGKTVTSFTDEEEREVGLDVHMPFLLESTLRLRGANFVRGGKWTDFSVRDGNLITGQNPQSSRSTAEKVVAALEERE | soluble |
| SNAMSLEMFDKEIFDLTNKELERQCEGLEMIASENFTLPEVMEVMGSILTNKYAEGYPGKRYYGGCEFVDEIETLAIERCKKLFNCKFANVQPNSGSQANQGVYAALINPGDKILGMDLSHGGHLTHGAKVSSSGKMYESCFYGVELDGRIDYEKVREIAKKEKPKLIVCGASAYARVIDFAKFREIADEIGAYLFADIAHIAGLVVAGEHPSPFPYAHVVSSTTHKTLRGPRGGIIMTNDEELAKKINSAIFPGIQGGPLMHVIAAKAVGFKFNLSDEWKVYAKQVRTNAQVLANVLMDRKFKLVSDGTDNHLVLMSFLDREFSGKDADLALGNAGITANKNTVPGEIRSPFITSGLRLGTPALTARGFKEKEMEIVSNYIADILDDVNNEKLQENIKQELKKLASNFIIYERAMF | soluble |
| SNAMTIRFADKADCAAITEIYNHAVLHTAAIWNDRTVDTDNRLAWYEARQLLGYPVLVSEENGVVTGYASFGDWRSFDGFRYTVEHSVYVHPAHQGKGLGRKLLSRLIDEARRCGKHVMVAGIESQNAASIRLHHSLGFTVTAQMPQVGVKFGRWLDLTFMQLQLDEHAAPDAC | soluble |
| SNAMTKPMIQIALDQTNLTDAVAVASNVASYVDVIEVGTILAFAEGMKAVSTLRHNHPNHILVCDMKTTDGGAILSRMAFEAGADWITVSAAAHIATIAACKKVADELNGEIQIEIYGNWTMQDAKAWVDLGITQAIYHRSRDAELAGIGWTTDDLDKMRQLSALGIELSITGGIVPEDIYLFEGIKTKTFIAGRALAGAEGQQTAAALREQIDRFWP | soluble |
| SNAMTQFAFVFPGQGSQSVGMLAEMAANYPIVEETFAEASAALGYDLWALTQQGPAEELNKTWQTQPALLTASVALWRVWQQQGGKMPALMAGHSLGEYSALVCAGVINFADAVRLVEMRGKFMQEAVPEGTGGMSAIIGLDDASIAKACEESAEGQVVSPVNFNSPGQVVIAGHKEAVERAGAACKAAGAKRALPLPVSVPSHCALMKPAADKLAVELAKITFSAPTVPVVNNVDVKCETDAAAIRDALVRQLYNPVQWTKSVEFIAAQGVEHLYEVGPGKVLTGLTKRIVDTLTASALNEPAALSAALTQ | soluble |
| SNASDKGKLSLQDVAELIRARACQRVVVMVGAGISTPSGIPDFRSPGSGLYSNLQQYDLPYPEAIFELPFFFHNPKPFFTLAKELYPGNYKPNVTHYFLRLLHDKGLLLRLYTQNIDGLERVSGIPASKLVEAHGTFASATCTVCQRPFPGEDIRADVMADRVPRCPVCTGVVKPDIVFFGEPLPQRFLLHVVDFPMADLLLILGTSLEVEPFASLTEAVRSSVPRLLINRDLVGPLAWHPRSRDVAQLGDVVHGVESLVELLGWTEEMRDLVQRETGKLDGPDK | soluble |
| SNAVYGSEVESKIIEFTIVGADEIIAEKLGISVGDFVYKIIRLRIIHSIPTIMEHTWMPIAVIPGVEASVLEESIYSYIQNKLGLKVGTSVVRVKGIRPDDKEKQFMNLTNQDFLMRVEQVAYLTDGRTFEYSYADHLPETFEFETVITAKSYKEA | soluble |
| SNAYSIALIIPSLFEKACAHFLPSFQQALNKAGYQLLLGYSDYSIEQEEKLLSTFLESRPAGVVLFGSEHSQRTHQLLEASNTPVLEIAELSSKASYLNIGVDHFEVGKACTRHLIEQGFKNVGFIGARGNHSTLQRQLHGWQSAMIENYLTPDHFLTTHEAPSSQLGAEGLAKLLLRDSSLNALVCSHEEIAIGALFECHRRVLKVPTDIAIICLEGSSMGEHAYPSLTSAEFDYERMGTKAAEKLLHAIKGEPEERPTSMGFKLKRRASTAIN | soluble |
| SNLDGSAQDPEKREYSSVCVGREDDIKKSERMTAVVHDREVVIFYHKGEYHAMDIRCYHSGGPLHLGDIEDFDGRPCIVCPWHKYKITLATGEGLYQSINPKDPSAKPKWCSKGIKQRIHTVTVDNGNIYVTLSNEPFKCDSDFYATGDFKVIKSSS | soluble |
| SNPTITRIELSYQDSSIANGTSTTLEVTAIFDNGTNQNITDSTSIVPDSQSVVTIEGNRVRGIASGSSIIKAEYNGLYSEQKITVTPAILNSIQVTSLESGILPKGTNRQFSAIGIFSDGSHQDISNEPLIVWSSSNPDLVRVDDSGLASGINLGTAHIRASFQSKQGAEEMTVGDAVLSQIQVTSNDLNIPLGKKQKLTATGIYSDNSNRDISSSVIWNSSNSTIANIQNNGILETADTGIVTVSASSENIIGSVKLIVTPAALVSISVSPTNSTVAKGLQENFKATGIFTDNSNSDITDQVTWDSSNTDILSISNASDSHGLASTLNQGNVKVTASIGGIQGSTDFKVTQAALTSIEVSPTRTSIAKGLTQKFTAIGIFTDNSKKDITDQVTWNSSSAIVSVSNLDNNKGLGKTNSVGNTTITATLGKVSGNTWFTVVPAV | not soluble |

Source: the DeepSol protein solubility set
